# Assay results taken from patent US20260356956 (published 2026).
# T1: mouse P-selectin (mouse, UniProt Q01102)
# T1 chain: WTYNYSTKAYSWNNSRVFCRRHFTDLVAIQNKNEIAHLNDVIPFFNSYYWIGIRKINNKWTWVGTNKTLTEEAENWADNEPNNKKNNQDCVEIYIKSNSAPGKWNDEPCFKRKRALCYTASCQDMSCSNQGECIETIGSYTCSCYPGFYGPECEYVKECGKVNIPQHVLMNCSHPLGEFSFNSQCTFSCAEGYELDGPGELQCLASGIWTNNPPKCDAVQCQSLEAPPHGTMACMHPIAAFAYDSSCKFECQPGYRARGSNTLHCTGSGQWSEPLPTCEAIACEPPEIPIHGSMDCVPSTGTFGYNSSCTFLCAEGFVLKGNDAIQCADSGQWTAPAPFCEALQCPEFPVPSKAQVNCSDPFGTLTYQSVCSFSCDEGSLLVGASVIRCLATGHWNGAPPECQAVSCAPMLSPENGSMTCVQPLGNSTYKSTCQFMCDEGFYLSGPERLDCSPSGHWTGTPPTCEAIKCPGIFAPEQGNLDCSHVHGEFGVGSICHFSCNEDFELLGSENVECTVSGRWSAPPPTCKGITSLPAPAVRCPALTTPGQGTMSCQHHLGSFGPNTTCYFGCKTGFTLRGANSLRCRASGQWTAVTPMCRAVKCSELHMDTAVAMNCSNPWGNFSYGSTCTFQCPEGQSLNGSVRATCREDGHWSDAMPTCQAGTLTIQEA
# B1: B.PSelscFv-Crry (2.12scFv-Crry, blocking) (antibody)
# chain: MPMGSLQPLATLYLLGMLVASVLAHHHHHHIEGREVKLVESGGGLVQPGSSMKLSCTTSGFTFSDYYMAWVRQVPEKGLEWVANINYDGSSAYYLDSFKSRFTISRDNEKNILYLQMSSLKSEDTATYYCARGDWFVYWGQGTLVTVSAGGGGSGGGGSGGGGSDIQMTQSPSSMSASLGERVTITCKASQDINSYLNWFQQKPGKSPKTLIFRANRLVDGVPSRFSGSGSGQDYSLTISSLEFEDVGIYYCLQYAEFPFTFGSGTKLEIKGGGGSGGGGSCPAPSQLPSAKPINLTDESMFPIGTYLLYECLPGYIKRQFSITCKQDSTWTSAEDKCIRKQCKTPSDPENGLVHVHTGIQFGSRINYTCNQGYRLIGSSSAVCVITDQSVDWDTEAPICEWIPCEIPPGIPNGDFFSSTREDFHYGMVVTYRCNTDARGKALFNLVGEPSLYCTSNDGEIGVWSGPPPQCIELNKCTPPPYVENAVMLSENRSLFSLRDIVEFRCHPGFIMKGASSVHCQSLNKWEPELPSCFKGVICRLPQEMSGFQKGLGMKKEYYYGENVTLECEDGYTLEGSSQSQCQSDGSWNPLLAKCVSRSIIEGRHHHHHH
# B2: NB.PSelscFv-Crry (2.3scFv-Crry, non-blocking) (antibody)
# chain: MSVPTQVLGLLLLWLTDARCQIQLVLSGPELKKPGESVKISCKASGYTFTTYGMSWVKQAPGKGLKWMGWINTSSGVPTYADDFKGRFAFSLETSASTAYLQINNLKNEDTATYFCARGGGYYGAYYFYYWGQGTTLTVSSGGGGSGGGGSGGGGSDIQMTQSPASLSASVGETVTITCRTSDNINSYLAWYLQRQGKSPQLLVYNAKTLTEGVPSRFSGSGSGTQFSLKINSLQPEDFGSYYCQHHYGPPPTFGGGTKLEIKGGGGSGGGGSCPAPSQLPSAKPINLTDESMFPIGTYLLYECLPGYIKRQFSITCKQDSTWTSAEDKCIRKQCKTPSDPENGLVHVHTGIQFGSRINYTCNQGYRLIGSSSAVCVITDQSVDWDTEAPICEWIPCEIPPGIPNGDFFSSTREDFHYGMVVTYRCNTDARGKALFNLVGEPSLYCTSNDGEIGVWSGPPPQCIELNKCTPPPYVENAVMLSENRSLFSLRDIVEFRCHPGFIMKGASSVHCQSLNKWEPELPSCFKGVICRLPQEMSGFQKGLGMKKEYYYGENVTLECEDGYTLEGSSQSQCQSDGSWNPLLAKCVSRSIIEGRHHHHHH
# Target: T1, mouse P-selectin
# Test: SPR, 25C
row,Binder,Kd [nM]
1,B1,333
2,B2,630
